Assay [1] concerns the target βTrCP (tag cleaved and complexed with Skp1), Q9Y297. Put plainly: FP competition vs fluorescein-IκB peptide.
The target of assay [2] is HisβTrCP/Skp1 and HisβTrCP/GSTSkp1 (immobilised on NTA Biacore chip), Q9Y297. Put plainly: SPR, Biacore T200, βTrCP/Skp1 immobilised. A general note: Surface plasmon resonance follows binding to a sensor surface in real time, without labels.
Assay [3] deals with Skp2, Q13309. Put plainly: cell-based or functional assay.
In assay [4] the target is T1, Fbw7, Q969H0.
T1 chain: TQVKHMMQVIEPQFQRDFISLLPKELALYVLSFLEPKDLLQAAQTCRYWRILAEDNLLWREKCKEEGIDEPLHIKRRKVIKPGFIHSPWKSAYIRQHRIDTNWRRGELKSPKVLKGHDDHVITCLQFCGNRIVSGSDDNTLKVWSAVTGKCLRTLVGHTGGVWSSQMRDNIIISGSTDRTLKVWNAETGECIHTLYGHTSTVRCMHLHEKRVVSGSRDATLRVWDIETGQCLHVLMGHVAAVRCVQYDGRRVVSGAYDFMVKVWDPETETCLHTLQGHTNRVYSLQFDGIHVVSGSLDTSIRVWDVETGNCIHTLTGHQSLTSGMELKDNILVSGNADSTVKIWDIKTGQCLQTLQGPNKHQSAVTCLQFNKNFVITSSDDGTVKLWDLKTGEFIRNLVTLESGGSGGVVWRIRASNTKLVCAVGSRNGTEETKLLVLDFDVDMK
Put plainly: cell-based or functional assay.

Assay [5] addresses βTrCP (tag cleaved and complexed with Skp1), Q9Y297. Nature of the assay: FP competition vs fluorescein-IκB peptide. This is another data set of the same source.

Read-outs that look alike come from different tables or passages of the source. Starred links: 1 amine or outer side, 2 acyl side, 3 side chain; linkers in the order of their positions; H or OH if unused. Suc = O=C(CCC(=O)[*:2])[*:1]

βTrCP (tag cleaved and complexed with Skp1), Q9Y297, sequence (Q9Y297 175-605, chain 1 of 2): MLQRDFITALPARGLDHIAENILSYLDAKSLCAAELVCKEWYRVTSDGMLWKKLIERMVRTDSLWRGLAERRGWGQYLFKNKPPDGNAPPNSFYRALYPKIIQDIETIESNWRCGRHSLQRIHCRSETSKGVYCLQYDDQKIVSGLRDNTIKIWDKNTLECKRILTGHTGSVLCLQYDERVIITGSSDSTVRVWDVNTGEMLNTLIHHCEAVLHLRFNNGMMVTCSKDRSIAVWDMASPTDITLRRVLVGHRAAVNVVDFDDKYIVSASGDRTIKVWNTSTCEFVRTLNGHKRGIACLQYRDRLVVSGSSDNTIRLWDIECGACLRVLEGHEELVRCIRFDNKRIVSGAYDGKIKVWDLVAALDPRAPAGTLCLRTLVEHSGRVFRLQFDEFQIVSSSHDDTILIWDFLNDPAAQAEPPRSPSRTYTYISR
βTrCP (tag cleaved and complexed with Skp1), Q9Y297, sequence (P63208 whole entry, chain 2 of 2, further chain): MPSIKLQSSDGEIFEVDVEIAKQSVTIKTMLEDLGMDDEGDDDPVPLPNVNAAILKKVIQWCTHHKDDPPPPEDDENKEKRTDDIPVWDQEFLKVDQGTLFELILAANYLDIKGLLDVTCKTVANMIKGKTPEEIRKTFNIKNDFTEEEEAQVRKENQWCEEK
Skp2, Q13309, sequence (Q13309 whole entry): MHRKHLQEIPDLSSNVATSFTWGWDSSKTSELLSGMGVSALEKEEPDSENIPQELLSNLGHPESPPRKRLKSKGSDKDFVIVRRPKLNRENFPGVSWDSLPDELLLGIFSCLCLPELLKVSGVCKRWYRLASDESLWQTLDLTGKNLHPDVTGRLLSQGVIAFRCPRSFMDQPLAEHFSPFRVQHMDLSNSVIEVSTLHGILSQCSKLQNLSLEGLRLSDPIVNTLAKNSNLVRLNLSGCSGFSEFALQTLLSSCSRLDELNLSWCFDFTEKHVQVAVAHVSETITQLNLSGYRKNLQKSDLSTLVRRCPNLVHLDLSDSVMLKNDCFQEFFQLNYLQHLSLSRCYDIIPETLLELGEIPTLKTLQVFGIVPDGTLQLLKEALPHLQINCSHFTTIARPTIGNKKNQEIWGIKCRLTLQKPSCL
HisβTrCP/Skp1 and HisβTrCP/GSTSkp1 (immobilised on NTA Biacore chip), Q9Y297, sequence (Q9Y297 175-605, chain 1 of 2): as the sequence (Q9Y297 175-605, chain 1 of 2) above
HisβTrCP/Skp1 and HisβTrCP/GSTSkp1 (immobilised on NTA Biacore chip), Q9Y297, sequence (P63208 whole entry, chain 2 of 2, further chain): as the sequence (P63208 whole entry, chain 2 of 2, further chain) above

B1: Suc-EGYFE-NH2 (peptide)
peptide: Suc-EGYFE-NH2
SMILES: NC(=O)[C@H](CCC(=O)O)NC(=O)[C@H](Cc1ccccc1)NC(=O)[C@H](Cc1ccc(O)cc1)NC(=O)CNC(=O)[C@H](CCC(=O)O)NC(=O)CCC(=O)O
By IC50 is commonly meant the concentration needed to halve the response being measured. A higher IC50 goes with weaker potency. Broadly, the Kd is the constant that tells how readily two partners part at equilibrium. High values mean lower affinity, low ones higher affinity. In assay [1], B1 gave a concentration for half-maximal inhibition (IC50) of 1 µM. In addition, the equilibrium dissociation constant (Kd) in assay [2] stood at 0.537 µM. In assay [3], this molecule came in with a % Inhibition Skp2 @ 10 µM of 11% and a % Inhibition Skp2 @ (100 µM) of 28%. In assay [4], this molecule returned a % Inhibition Fbw7 @ 10 µM of 0% and a % Inhibition Fbw7 @ (100 µM) of 0%. This molecule displayed a half-inhibitory concentration (IC50) in assay [5] of 1.04 µM.

Source of the values: patent US20190106460A1, “BINDING INHIBITORS OF THE BETA. TRANSDUCIN REPEAT-CONTAINING PROTEIN” (priority 2011, published 2019).
